Measured values published in patent publication US20210123036A1 (UNIVERSITY OF LIVERPOOL, published 2021).
Where no end group is shown, it is not given here.

Key:
[1] = target: T1, type II collagen gelatin; experiment: ELISA-type plate binding assay, biotinylated protein on gelatin-coated plate
T1 construct: Denatured collagen, coated on plates (ELISA-type assay, cell adhesion) or added in solution (NMR); also called type II gelatin; collagen type II gelatin

[2] = target: type I collagen gelatin (skin gelatin); experiment: as above
[3] = target: T1, type II collagen gelatin; experiment: cell-based or functional assay
[4] = target: T1, type II collagen gelatin; experiment: ELISA-type plate binding assay, comparison of Kd
Procedure: The chimeric peptides were assessed for binding to collagen type I and type II gelatin using the plate binding assay (described in the materials and methods section). […] A peptide comprising three modules corresponding to module 1 was not tested.

[5] = target: T1, type II collagen gelatin; experiment: ELISA-type plate binding assay, comparison of Kd (summary of the Examples)
[6] = target: type I collagen gelatin (skin gelatin); experiment: ELISA-type plate binding assay, comparison of apparent Kd

Chain of type I collagen gelatin (skin gelatin) (P02453 162-1217, chain 1 of 2): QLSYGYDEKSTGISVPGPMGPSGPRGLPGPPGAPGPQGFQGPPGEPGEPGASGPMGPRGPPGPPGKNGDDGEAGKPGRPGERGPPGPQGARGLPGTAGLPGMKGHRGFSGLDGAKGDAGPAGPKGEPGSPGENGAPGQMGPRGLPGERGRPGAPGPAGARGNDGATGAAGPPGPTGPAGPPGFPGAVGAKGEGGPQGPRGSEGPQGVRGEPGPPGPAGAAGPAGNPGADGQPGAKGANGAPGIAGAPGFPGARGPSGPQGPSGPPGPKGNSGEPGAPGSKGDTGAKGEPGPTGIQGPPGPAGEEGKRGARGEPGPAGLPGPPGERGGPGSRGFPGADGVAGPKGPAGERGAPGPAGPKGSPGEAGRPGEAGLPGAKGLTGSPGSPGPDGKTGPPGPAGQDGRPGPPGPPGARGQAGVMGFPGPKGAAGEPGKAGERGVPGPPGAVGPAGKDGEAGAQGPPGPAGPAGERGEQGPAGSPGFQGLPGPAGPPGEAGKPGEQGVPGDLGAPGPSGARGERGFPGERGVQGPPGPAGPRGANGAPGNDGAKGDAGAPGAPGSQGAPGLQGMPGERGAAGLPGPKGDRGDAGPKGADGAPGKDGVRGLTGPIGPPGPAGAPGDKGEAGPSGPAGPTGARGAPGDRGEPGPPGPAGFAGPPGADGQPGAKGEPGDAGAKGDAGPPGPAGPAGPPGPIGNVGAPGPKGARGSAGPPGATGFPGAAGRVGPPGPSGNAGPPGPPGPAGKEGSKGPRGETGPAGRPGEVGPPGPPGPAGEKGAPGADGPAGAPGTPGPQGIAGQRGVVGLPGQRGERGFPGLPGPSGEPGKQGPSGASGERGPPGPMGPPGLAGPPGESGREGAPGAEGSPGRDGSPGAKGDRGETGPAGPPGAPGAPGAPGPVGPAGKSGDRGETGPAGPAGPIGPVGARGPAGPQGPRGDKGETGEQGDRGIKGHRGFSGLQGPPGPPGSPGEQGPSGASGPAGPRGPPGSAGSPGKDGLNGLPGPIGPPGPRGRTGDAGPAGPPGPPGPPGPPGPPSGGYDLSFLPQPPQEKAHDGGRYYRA
Chain of type I collagen gelatin (skin gelatin) (P02465 80-1117, chain 2 of 2, further chain): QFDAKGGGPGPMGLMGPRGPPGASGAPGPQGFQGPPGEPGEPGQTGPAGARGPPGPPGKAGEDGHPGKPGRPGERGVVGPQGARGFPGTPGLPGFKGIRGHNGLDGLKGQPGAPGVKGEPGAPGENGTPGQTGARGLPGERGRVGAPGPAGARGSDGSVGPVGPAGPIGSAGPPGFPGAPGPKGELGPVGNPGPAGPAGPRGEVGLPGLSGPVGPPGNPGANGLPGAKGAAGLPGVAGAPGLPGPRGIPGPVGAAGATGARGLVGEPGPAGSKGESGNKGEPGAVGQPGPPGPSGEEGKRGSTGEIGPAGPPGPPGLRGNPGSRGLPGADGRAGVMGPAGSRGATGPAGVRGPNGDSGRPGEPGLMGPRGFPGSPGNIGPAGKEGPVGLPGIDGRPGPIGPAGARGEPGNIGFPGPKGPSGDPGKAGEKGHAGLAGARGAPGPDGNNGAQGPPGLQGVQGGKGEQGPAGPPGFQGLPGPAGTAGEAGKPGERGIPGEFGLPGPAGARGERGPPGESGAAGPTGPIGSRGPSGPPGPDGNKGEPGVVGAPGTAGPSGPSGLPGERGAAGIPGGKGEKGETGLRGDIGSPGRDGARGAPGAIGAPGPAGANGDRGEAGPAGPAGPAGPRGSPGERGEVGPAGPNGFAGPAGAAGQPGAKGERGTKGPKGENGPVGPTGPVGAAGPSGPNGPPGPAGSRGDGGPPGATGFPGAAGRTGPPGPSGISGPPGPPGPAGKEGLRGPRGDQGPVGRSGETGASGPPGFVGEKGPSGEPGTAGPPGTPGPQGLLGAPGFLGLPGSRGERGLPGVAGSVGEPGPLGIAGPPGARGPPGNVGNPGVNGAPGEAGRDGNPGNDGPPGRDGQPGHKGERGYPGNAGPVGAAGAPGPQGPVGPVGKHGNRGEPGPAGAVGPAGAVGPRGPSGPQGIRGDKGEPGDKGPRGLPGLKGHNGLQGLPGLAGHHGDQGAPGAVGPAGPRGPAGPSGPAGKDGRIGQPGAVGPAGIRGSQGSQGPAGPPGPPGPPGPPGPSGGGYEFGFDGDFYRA

Binder | Kd [1] | Kd [2] | median % adhesion relative to plastic [3] | fold higher affinity than 333 [4] | fold higher affinity than the full length CBD [4] | fold higher affinity than the naturally occurring CBD of MMP-2 [5] | fold better binding than to type II gelatin [6]
AEGQPCKFPFRFQGTSYDSCTTEGRTDGYRWCGTTEDYDRDKKYGFCPE (other, cysteine pairing not given here; also: biotinylated for plate binding assay, also called M2) [module 2 of the CBD of MMP-2] | 4260 nM | 3720 nM |  |  |  |  | 
conjugate comprising MSCs and the peptide 222 (other, carboxylic residues cationised by covalent coupling of N,N'-dimethyl-1,3-propanediamine (DMPA); corona of glycolic acid ethoxylate 4-nonylphenyl ether surfactant; incorporated into the membrane of mesenchymal stem cells) EGQVVFTMYGNAEGQPCKFPFRFQGTSYDSCTTEGRTDGYRWCGTTEDYDRDKKYGFCPHEALFTMGGNAEGQPCKFPFRFQGTSYDSCTTEGRTDGYRWCGTTEDYDRDKKYGFCPETALFTMGGNAEGQPCKFPFRFQGTSYDSCTTEGRTDGYRWCGTTEDYDRDKKYGFCPDQGYSL |  |  | 224% |  |  |  | 
peptide 222 comprising three modules corresponding to module 2 of the CBD of MMP-2 (designed binder, Expressed in Shuffle cells with a His6-SUMO tag that was cleaved off) EGQVVFTMYGNAEGQPCKFPFRFQGTSYDSCTTEGRTDGYRWCGTTEDYDRDKKYGFCPHEALFTMGGNAEGQPCKFPFRFQGTSYDSCTTEGRTDGYRWCGTTEDYDRDKKYGFCPETALFTMGGNAEGQPCKFPFRFQGTSYDSCTTEGRTDGYRWCGTTEDYDRDKKYGFCPDQGYSL | 1.46 nM | 0.497 nM |  | 10 fold | 10 fold | ~14 fold | 
peptide 333 comprising three modules corresponding to module 3 of the CBD of MMP-2 (designed binder) EGQVVSTVYGNSEGAPCVFPFTFLGNKYESCTSAGRSDGFLWCATTANYDDDRKWGFCPHEALFTMGGNSEGAPCVFPFTFLGNKYESCTSAGRSDGKRWCATTANYDDDRKWGFCPETAMSTVGGNSEGAPCVFPFTFLGNKYESCTSAGRSDGKMWCATTANYDDDRKWGFCPDQGYSL | 117 nM | 0.0159 nM |  |  |  |  | 
collagen binding domain (CBD) of gelatinase A (MMP-2) (other, Expressed in Shuffle T7 E. coli with a His6-SUMO tag that was cleaved off; also called CBD of MMP-2; Full length CBD) ADGEYCKFPFLFNGKEYNSCTDTGRSDGFLWCSTTYNFEKDGKYGFCPHEALFTMGGNAEGQPCKFPFRFQGTSYDSCTTEGRTDGYRWCGTTEDYDRDKKYGFCPETAMSTVGGNSEGAPCVFPFTFLGNKYESCTSAGRSDGKMWCATTANYDDDRKWGFCPD | 20.4 nM | 2.58 nM |  |  |  |  | 
SEGAPCVFPFTFLGNKYESCTSAGRSDGKMWCATTANYDDDRKWGFCPD (other, cysteine pairing not given here; also: biotinylated for plate binding assay, also called M3) [module 3 of the CBD of MMP-2] | 12000 nM | 4090 nM |  |  |  |  | 3 fold
